The results in this text go back to patent US20160145328A1.

In this assay the target is protein A (UniProt P38507). The assay can be described thus: Heat/Cool phage ELISA: phage-displayed VH, 80 C 10 min then 4 C 10 min, captured on coated protein A; signal as % of untreated sample. (In general: In an ELISA, binding on a coated surface is turned into a signal by an enzyme label.)

Take DP47 VH SY_31/32-DE: the Retained binding to protein A (%) is 50%.
